Values belong to the binder of their own block, whether it stands above or below them.
What was measured:
LAMP1_mseq4_ΔGYQTI = biological target: T1, LAMP1_mseq4_ΔGYQTI (human; mouse); assay: flow cytometry, transfected 293-F cells
T1 construct: on cells; also called pXL6015

[1] = biological target: T2, human LAMP1 at the cell surface (human, UniProt P11279 29-417); assay: flow cytometry, HCT116 stable clones; human LAMP1 on recombinant HCT116 stable clones
T2 construct: native on tumour cells (PDX, Colo205, SW480, LS174T) or from the cloned CDS NM_005561.3 in HEK293 and HCT116; signal peptide 1-28 left out; also called huLAMP1; full length human LAMP1
T2 sequence: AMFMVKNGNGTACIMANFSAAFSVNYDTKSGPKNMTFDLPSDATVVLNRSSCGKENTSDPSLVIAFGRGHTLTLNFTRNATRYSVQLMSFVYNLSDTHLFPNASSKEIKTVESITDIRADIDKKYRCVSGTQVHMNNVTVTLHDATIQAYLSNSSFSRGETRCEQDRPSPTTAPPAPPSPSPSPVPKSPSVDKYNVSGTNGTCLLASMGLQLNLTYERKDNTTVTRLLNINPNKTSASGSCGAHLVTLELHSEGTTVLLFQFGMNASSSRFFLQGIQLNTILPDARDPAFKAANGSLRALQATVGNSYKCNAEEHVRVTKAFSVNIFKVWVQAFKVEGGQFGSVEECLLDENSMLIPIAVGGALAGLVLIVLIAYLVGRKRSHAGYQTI
Method: HCT116 cells were infected by a lentiviral vector allowing stable integration of the human or the cynomolgus LAMP1 CDS in genomic DNA of cells. Individual clones with different densities of human or cynomolgus LAMP1 cell surface localization were derived from a pool of HCT116 infected cells. […] 100 μL/well of goat anti-human IgG conjugated with Alexa488 (Invitrogen; # A11013) was added for 1 h at 4° C. and washed two times with PBS 1% BSA. The antibody binding was evaluated after centrifugation and resuspension of cells in 100 μl fixing solution (paraformaldehyde at 4% in PBS). Samples were read using Galaxy® Flow Cytometry System (Partec). EC50 values were estimated using BIOST@T-SPEED software.

[2] = biological target: T3, cynomolgus monkey LAMP1 at the cell surface (cynomolgus monkey, UniProt P11279 29-417 (human entry)); assay: flow cytometry, transiently transfected HEK293 cells
T3 construct: also called cynoLAMP1; cynomolgus LAMP1
T3 chain: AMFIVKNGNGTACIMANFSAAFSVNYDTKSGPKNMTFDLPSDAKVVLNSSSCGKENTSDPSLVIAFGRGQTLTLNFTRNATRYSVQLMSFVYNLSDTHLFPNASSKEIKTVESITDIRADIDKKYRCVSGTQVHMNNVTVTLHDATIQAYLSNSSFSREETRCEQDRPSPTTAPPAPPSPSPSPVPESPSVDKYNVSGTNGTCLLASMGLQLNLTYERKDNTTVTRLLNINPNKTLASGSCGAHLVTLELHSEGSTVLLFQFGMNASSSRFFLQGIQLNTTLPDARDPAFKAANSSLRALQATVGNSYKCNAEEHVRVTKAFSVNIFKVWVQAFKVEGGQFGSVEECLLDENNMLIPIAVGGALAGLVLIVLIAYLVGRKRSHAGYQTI
Description: (§1) LAMP1 Coding DNA Sequence, RefSeq NM_005561.3 (SEQ ID NO: 23) was cloned internally. The CDS of Macaca mulatta LAMP1, RefSeq XP_001087801 (SEQ ID NO: 27) was also cloned internally. […] Therefore the secreted LAMP1 used in the following example is referred to cynomolgus monkey. Both CDS were cloned into mammalian expression plasmids under CMV enhancer/promoter and SV40 polyA signals. HEK293 cells (Invitrogen; #K9000-10.) were transiently transfected with human LAMP1 or cynomolgus LAMP1 plasmids using FreeStyle™ MAX 293 Expression System according to the manufacturer's instructions. […] 100 μL/well of goat anti-mouse IgG conjugated with Alexa647 (Invitrogen; # A2135) was added for 45 min at 4° C. and washed three times with PBS 1% BSA. The antibody binding was evaluated after centrifugation and resuspension of cells by adding 200 μl/well PBS 1% BSA and read using Guava® easyCyte™ 8HT Flow Cytometry System. EC50 values were estimated using BIOST@T-SPEED software.

[3] = biological target: T2, human LAMP1 at the cell surface; assay: as above
Description: as §1

[4] = biological target: T2, human LAMP1 at the cell surface; assay: flow cytometry, HCT116 stable clone
Description: (§2) HCT116 stable clone was obtained as described above. HEK293 cells were infected by a lentiviral vector allowing stable integration of the human or the cynomolgus LAMP1 CDS in genomic DNA of cells. Individual clones with different densities of cynomolgus LAMP1 cell surface localization were derived from a pool of HEK293 infected cells. Protocol as described in example above. EC₅₀ values were estimated using BIOST@T-SPEED software.

mLAMP1_ΔGYQTI = biological target: T4, mLAMP1_ΔGYQTI (mouse, UniProt P11438 25-369); assay: flow cytometry, transfected 293-F cells
T4 construct: on cells; also called pXL6009; murine LAMP1; not shown: murine transmembrane domain and cytoplasmic tail with GYQTI replaced by 5 Ala
T4 sequence: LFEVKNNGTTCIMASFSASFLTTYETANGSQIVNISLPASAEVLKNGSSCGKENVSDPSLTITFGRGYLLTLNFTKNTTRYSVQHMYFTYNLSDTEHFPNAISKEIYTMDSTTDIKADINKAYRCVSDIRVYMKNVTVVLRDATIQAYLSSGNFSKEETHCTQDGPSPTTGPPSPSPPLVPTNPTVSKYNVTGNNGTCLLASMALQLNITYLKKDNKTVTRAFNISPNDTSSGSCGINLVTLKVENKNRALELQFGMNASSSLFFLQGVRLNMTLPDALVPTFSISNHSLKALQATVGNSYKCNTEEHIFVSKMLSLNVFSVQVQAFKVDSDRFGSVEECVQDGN

[5] = biological target: T3, cynomolgus monkey LAMP1 at the cell …; assay: flow cytometry, HEK293 stable clone
Description: as §2

[6] = biological target: T3, cynomolgus monkey LAMP1 at the cell …; assay: flow cytometry, HCT116 stable clones
Method: (§3) 100 μL/well of goat anti-mouse IgG conjugated with Alexa647 (Invitrogen; # A2135) was added for 45 min at 4° C. and washed three times with PBS 1% BSA. The antibody binding was evaluated after centrifugation and re-suspension of cells by adding 200 μl/well PBS 1% BSA and read using Guava® easyCyte™ 8HT Flow Cytometry System. EC50 values were estimated using BIOST@T-SPEED software.

[7] = biological target: T2, human LAMP1 at the cell surface; assay: flow cytometry, HCT116 stable clones
Method: as §3

mean fluorescence (LAMP1_mseq4_ΔGYQTI): 891
EC50 [1]: 4.9 nM
EC50 [2]: 44 nM
EC50 [3]: 14 nM
B1: MAb1 (antibody, mouse IgG2a, kappa)
heavy: QVQLQQSGAELVKPGASVKMSCKASGYIFTNYNIHWVKKSPGQGLEWIGAIYPGNGDAPYSQKFKDKATLTADKSSSTTYMQLSRLTSEDSAVYYCVRANWDVAFAYWGQGTLVSVSAAKTTAPSVYPLAPVCGDTTGSSVTLGCLVKGYFPEPVTLTWNSGSLSSGVHTFPAVLQSDLYTLSSSVTVTSSTWPSQSITCNVAHPASSTKVDKKIEPRGPTIKPCPPCKCPAPNLLGGPSVFIFPPKIKDVLMISLSPIVTCVVVDVSEDDPDVQISWFVNNVEVHTAQTQTHREDYNSTLRVVSALPIQHQDWMSGKEFKCKVNNKDLPAPIERTISKPKGSVRAPQVYVLPPPEEEMTKKQVTLTCMVTDFMPEDIYVEWTNNGKTELNYKNTEPVLDSDGSYFMYSKLRVEKKNWVERNSYSCSVVHEGLHNHHTTKSFSRTPGK
light: DIQMTQSPPSLSASLGGKVTITCKASQDIDRYMAWYQDKPGKGPRLLIHDTSTLQPGIPSRFSGSGSGRDYSFSISNLEPEDIATYYCLQYDNLWTFGGGTKLEIKRADAAPTVSIFPPSSEQLTSGGASVVCFLNNFYPKDINVKWKIDGSERQNGVLNSWTDQDSKDSTYSMSSTLTLTKDEYERHNSYTCEATHKTSTSPIVKSFNRNEC
notes: murine monoclonal IgG, kappa, from hybridoma; also called murine MAb1

EC50 [4]: 7.6 nM
binding result (mLAMP1_ΔGYQTI): no binding
EC50 [5]: 4 nM
B2: MAb3 (antibody, V domains shown)
VH: QIQLVQSGPELKKPGETVKISCKASGYIFTNYGMNWVKQAPGKGLKWMGWINTYTGESRYADDFKGRFALSLETSASTAYLQINNLENEDMATYFCAREDYYGNSPWFFDVWGAGTTVTVSS
VL: DIQMTQTTSSLSASLGDRVTISCNASQGINKYLNWYQQKPDGTVKLLIYYTSTLHSGVPSRFSGSGSGTDYSLTINNLEPEDIATYYCQQYTKLPFTFGSGTKLEIK
notes: murine monoclonal IgG, kappa, from hybridoma; also called murine MAb3

EC50 [6]: 6.6 nM
EC50 [7]: 6.3 nM
B3: MAb2 (antibody, mouse IgG1, kappa)
heavy: QVQLQQSAAELARPGASVKMSCKASGYTFTSYTMHWVKQRPGQGLEWIGYFNPSSGYPEYNQKFKDKTTLTADKSSNTAFIQLNSLTSEDSAVYYCSRGYYYGSRGYALDFWGQGASVTVSSAKTTPPSVYPLAPGSAAQTNSMVTLGCLVKGYFPEPVTVTWNSGSLSSGVHTFPAVLQSDLYTLSSSVTVPSSTWPSETVTCNVAHPASSTKVDKKIVPRDCGCKPCICTVPEVSSVFIFPPKPKDVLTITLTPKVTCVVVDISKDDPEVQFSWFVDDVEVHTAQTQPREEQFNSTFRSVSELPIMHQDWLNGKEFKCRVNSAAFPAPIEKTISKTKGRPKAPQVYTIPPPKEQMAKDKVSLTCMITDFFPEDITVEWQWNGQPAENYKNTQPIMDTDGSYFVYSKLNVQKSNWEAGNTFTCSVLHEGLHNHHTEKSLSHSPGK
light: NIVLTQSPVSLAVSLGQRATISCRASESVDINGNTFMHWYQQKPGQSPKLVIYAASNIESGVPARFSGSGSSTDFTFTIDPVEADDVATYYCQQNIEDPWTFGGGTKVEIKRADAAPTVSIFPPSSEQLTSGGASVVCFLNNFYPKDINVKWKIDGSERQNGVLNSWTDQDSKDSTYSMSSTLTLTKDEYERHNSYTCEATHKTSTSPIVKSFNRNEC
notes: murine monoclonal IgG, kappa, from hybridoma; also called murine MAb2

— patent publication US20180142032A1 (Sanofi, published 2018)
